A word on the Km: it is the concentration of substrate that gives half-maximal velocity. The term kcat denotes the maximal rate divided by the concentration of active sites. One may read the kcat/Km as the second-order rate constant that governs catalysis at low substrate concentration.

What all share (experiment): fluorescent release of 4-methylumbelliferone (chitinase assay kit CS1030)
Holding throughout (type): biochemical, Chitinophaga pinensis
Conditions in all cases: kit manufacturer's conditions

Substrate in data set [1]: CC(=O)N[C@H]1[C@H](Oc2ccc3c(C)cc(=O)oc3c2)O[C@H](CO)[C@@H](O[C@@H]2O[C@H](CO)[C@@H](O[C@@H]3O[C@H](CO)[C@@H](O)[C@H](O)[C@H]3NC(C)=O)[C@H](O)[C@H]2NC(C)=O)[C@@H]1O
From the text:
fluorescent release of 4-methylumbelliferone (chitinase assay kit CS1030) on […]

Substrate in data set [2]: CC(=O)N[C@H]1[C@H](Oc2ccc3c(C)cc(=O)oc3c2)O[C@H](CO)[C@@H](O[C@@H]2O[C@H](CO)[C@@H](O[C@@H]3O[C@H](CO)[C@@H](O)[C@H](O)[C@H]3NC(C)=O)[C@H](O)[C@H]2NC(C)=O)[C@@H]1O
From the text: fluorescent release of 4-methylumbelliferone (chitinase assay kit CS1030) on CpChiB-CBM6
This is another data set of the same source.

Substrate in data set [3]: CC(=O)N[C@H]1[C@H](Oc2ccc3c(C)cc(=O)oc3c2)O[C@H](CO)[C@@H](O[C@@H]2O[C@H](CO)[C@@H](O[C@@H]3O[C@H](CO)[C@@H](O)[C@H](O)[C@H]3NC(C)=O)[C@H](O)[C@H]2NC(C)=O)[C@@H]1O
From the text: fluorescent release of 4-methylumbelliferone (chitinase assay kit CS1030) on CpChiB
The source holds these as a separate data set.

Substrate in data set [4]: CC(=O)N[C@H]1[C@H](Oc2ccc3c(C)cc(=O)oc3c2)O[C@H](CO)[C@@H](O[C@@H]2O[C@H](CO)[C@@H](O[C@@H]3O[C@H](CO)[C@@H](O)[C@H](O)[C@H]3NC(C)=O)[C@H](O)[C@H]2NC(C)=O)[C@@H]1O
From the text:
fluorescent release of 4-methylumbelliferone (chitinase assay kit CS1030) on CpChiAC-CBM5
The source holds these as a separate data set.

B1: CpChiAC (Chitinophaga pinensis DSM 2588) (protein)
chain: KVVVGYWQNWNLASAPYIRLRDVDSRYNVIEVAFGTTSSDLSTVNFTPEGTTVADFKADIATLQAQGRKVLLSLGGETGTLVINTEANKQAFISSMKNLLDSYNFDGFDLDIEGGTSLQLNNGDNNFMAPTTPKVVNLIAAAKEIISYRKAQGKNCLLTMAPETYYVQTAYGATYSPLVGAYLPIIYGLRNELSWIQPQLYNTGSVMGLDNKVYNSTTADFIVSMTEMLLQGFPVSGTSQTFPALREDQVAFGLPAAPGAAGSGYTAPAEVKKALNYLTKGQSYGGTYVIRKAAGYPGLRGIMTWSVNWDKVNNSEFAANYYPYFFGT
notes: C-terminal His6 tag (pET21a), E. coli BL21(DE3)
Regarding B1, in data set [1], the Km was 220 ± 3 µM, the kcat worked out at 2.6587 ± 0.035 s⁻¹ and the kcat/Km amounted to 11800 M⁻¹ s⁻¹.

B2: CpChiB-CBM6 (Chitinophaga pinensis DSM 2588) (protein)
chain: QFKVVGYMPSWSGSVSAIQYSKLTHINYAFALPTSTGGLQPIENPSKLSSLVSSGHANGVKVLIAIGGWNNGDDGAFESLAANATYRTNFVNNVMNFVNQYGLDGVDMDWEYPDAGASANNYLALMQQLSTALHNNGKLLTAAVVGTGGASILNGVFNVVDFLNLMAYDYNNYEHSTYTYASQSLSYWVGRGLPASKAILGVPFYARPSWNSYATLLANGANPNSDYFGSDYYNGLPTIRSKTNLAFDQGGGIMMWELSQDATGANSLLSAIYQVKLDRTGTNPPTGSTLIQAENYTSMSGVQVEATTDAGGGSNVGYIETGDWLAYANINFPTSGAYKVEYRVASQSTGGQLSLDLNSGAIVLGYLNVPVTGGWQTWTTISHNVNVTAGTYSLGVYAQSGGWNINWIRITKVAS
notes: as for B1
For the protein B2, in data set [2], the Km amounted to 120 ± 3 µM, the kcat amounted to 1.005 ± 0.0533 s⁻¹ and the kcat/Km stood at 8150 M⁻¹ s⁻¹.

B3: CpChiB (Chitinophaga pinensis DSM 2588) (protein)
chain: QFKVVGYMPSWSGSVSAIQYSKLTHINYAFALPTSTGGLQPIENPSKLSSLVSSGHANGVKVLIAIGGWNNGDDGAFESLAANATYRTNFVNNVMNFVNQYGLDGVDMDWEYPDAGASANNYLALMQQLSTALHNNGKLLTAAVVGTGGASILNGVFNVVDFLNLMAYDYNNYEHSTYTYASQSLSYWVGRGLPASKAILGVPFYARPSWNSYATLLANGANPNSDYFGSDYYNGLPTIRSKTNLAFDQGGGIMMWELSQDATGANSLLSAIYQVKLDR
notes: as for B1
On to B3, for which, in data set [3], the Km was 240 ± 10 µM, the kcat turned out to be 2.199 ± 0.148 s⁻¹ and the kcat/Km stood at 8850 M⁻¹ s⁻¹.

B4: CpChiAC-CBM5 (Chitinophaga pinensis DSM 2588) (protein)
chain: KVVVGYWQNWNLASAPYIRLRDVDSRYNVIEVAFGTTSSDLSTVNFTPEGTTVADFKADIATLQAQGRKVLLSLGGETGTLVINTEANKQAFISSMKNLLDSYNFDGFDLDIEGGTSLQLNNGDNNFMAPTTPKVVNLIAAAKEIISYRKAQGKNCLLTMAPETYYVQTAYGATYSPLVGAYLPIIYGLRNELSWIQPQLYNTGSVMGLDNKVYNSTTADFIVSMTEMLLQGFPVSGTSQTFPALREDQVAFGLPAAPGAAGSGYTAPAEVKKALNYLTKGQSYGGTYVIRKAAGYPGLRGIMTWSVNWDKVNNSEFAANYYPYFFGTTPGNQSPVVSITSPASGASFTAPASITITASASDADGSIAKVEFYNGATKLGQATAAPYSYTWTNVAAATYSLTAVATDNAGAVTTSAAVSVTVNGTGGNTCDGIAAWSATIAYNGSQQVVYNGKIYTAKWWTQGDQPDTHSGADQVWAYVRDCGGSNPGNQAPTVSITSPSAGASFSAPATVTIQATAADADGTIAKVEFYNGNTKLGEVTASPYSYTWGNVAAGAYSITAVATDNGSKSTTSAAVAIQVGSGNTGNCAGVAAYEPFPKVYNQGDKVVYNGVLYESQSNGLYNVTPGTADWWWKPLGACGAAARVAVVSPEPDGVNADSKLVVFPNPLTGTVLKVQINAAQGEKVLIELWSTNGNAILRKQIVAGAKGQQTVDLDVSQVPAGSWILKTSNQQSGRKSAAKVIRL
notes: as for B1
As to B4, in data set [4], the Km came out at 290 ± 0.2 µM, the kcat was found to be 3.0285 ± 0.0383 s⁻¹ and the specificity constant (kcat/Km) was 10600 M⁻¹ s⁻¹.

For the origin of these results see paper PMC10449523, “A polysaccharide utilization locus from Chitinophaga pinensis simultaneously targets chitin and β-glucans found in fungal cell walls” (mSphere, 2023).
